These results are taken from patent publication US20230348605A1 (published 2023).

In general, Kd refers to the concentration at which binding is half-saturated.

Assay [1] concerns the target T1, fibronectin (FN) containing the EIIIB domain, in the ECM of aortic endothelial cells from control/wild type … (mouse, UniProt P11276 33-2477).
T1 construct: whole, on cells; Protein stood in the cell-derived extracellular matrix, not on the cell membrane; also called EIIIB domain of FN
Nature of the assay: biotinylated NJB2 detected with streptavidin-Alexa488 on endothelial cells and their ECM. The text has this:
The NJB2 was site-specifically labelled with biotin via sortagging and detected with streptavidin-Alexa488. […] The αEIIIB control was cells stained with mouse monoclonal IgG specific to an epitope in the EIIIB domain of FN. The negative control, C, was unstained cells.

For assay [2], the target named is T2, EIIIB domain of fibronectin.
T2 construct: domain: EIIIB domain; also called recombinantly expressed EIIIB domain of FN
Nature of the assay: BLI. On the technique in general: BLI is a label-free optical method that tracks binding on a fibre tip over time.

The target of assay [3] is T3, FN-EIIIB in human patient tissue (PDAC stroma; metastases on a tissue array) (human, UniProt P02751 32-2477).
T3 construct: Endogenous protein in tissue sections; also called EIIIB expressed in human PDAC stroma; stromal FN-EIIIB
Nature of the assay: immunohistochemistry on a multi-organ metastatic tissue array. The text has this:
To investigate the expression of EIIIB in metastasis samples from multiple patients, we stained a multi-organ tissue array of samples from various metastatic sites derived from 104 patients with NJB2-biotin. […] In parallel, similar results were obtained with a monoclonal anti-EIIIB antibody (AM3, data not shown). These metastases to multiple organs (21 distinct sites) were derived from 17 different primary sites, including rectum, pancreas, lung, ovary, stomach and thyroid among others (Table 4). Among the EIIIB-positive biopsies, ~32% were metastases to the lymph nodes at the metastatic sites (Table 4). This wide expression of EIIIB at metastatic sites in multiple organs and derived from multiple types of primary tumors further broadens the potential applications of NJB2-based imaging and therapeutic applications.

T1 sequence (P11276 33-2477): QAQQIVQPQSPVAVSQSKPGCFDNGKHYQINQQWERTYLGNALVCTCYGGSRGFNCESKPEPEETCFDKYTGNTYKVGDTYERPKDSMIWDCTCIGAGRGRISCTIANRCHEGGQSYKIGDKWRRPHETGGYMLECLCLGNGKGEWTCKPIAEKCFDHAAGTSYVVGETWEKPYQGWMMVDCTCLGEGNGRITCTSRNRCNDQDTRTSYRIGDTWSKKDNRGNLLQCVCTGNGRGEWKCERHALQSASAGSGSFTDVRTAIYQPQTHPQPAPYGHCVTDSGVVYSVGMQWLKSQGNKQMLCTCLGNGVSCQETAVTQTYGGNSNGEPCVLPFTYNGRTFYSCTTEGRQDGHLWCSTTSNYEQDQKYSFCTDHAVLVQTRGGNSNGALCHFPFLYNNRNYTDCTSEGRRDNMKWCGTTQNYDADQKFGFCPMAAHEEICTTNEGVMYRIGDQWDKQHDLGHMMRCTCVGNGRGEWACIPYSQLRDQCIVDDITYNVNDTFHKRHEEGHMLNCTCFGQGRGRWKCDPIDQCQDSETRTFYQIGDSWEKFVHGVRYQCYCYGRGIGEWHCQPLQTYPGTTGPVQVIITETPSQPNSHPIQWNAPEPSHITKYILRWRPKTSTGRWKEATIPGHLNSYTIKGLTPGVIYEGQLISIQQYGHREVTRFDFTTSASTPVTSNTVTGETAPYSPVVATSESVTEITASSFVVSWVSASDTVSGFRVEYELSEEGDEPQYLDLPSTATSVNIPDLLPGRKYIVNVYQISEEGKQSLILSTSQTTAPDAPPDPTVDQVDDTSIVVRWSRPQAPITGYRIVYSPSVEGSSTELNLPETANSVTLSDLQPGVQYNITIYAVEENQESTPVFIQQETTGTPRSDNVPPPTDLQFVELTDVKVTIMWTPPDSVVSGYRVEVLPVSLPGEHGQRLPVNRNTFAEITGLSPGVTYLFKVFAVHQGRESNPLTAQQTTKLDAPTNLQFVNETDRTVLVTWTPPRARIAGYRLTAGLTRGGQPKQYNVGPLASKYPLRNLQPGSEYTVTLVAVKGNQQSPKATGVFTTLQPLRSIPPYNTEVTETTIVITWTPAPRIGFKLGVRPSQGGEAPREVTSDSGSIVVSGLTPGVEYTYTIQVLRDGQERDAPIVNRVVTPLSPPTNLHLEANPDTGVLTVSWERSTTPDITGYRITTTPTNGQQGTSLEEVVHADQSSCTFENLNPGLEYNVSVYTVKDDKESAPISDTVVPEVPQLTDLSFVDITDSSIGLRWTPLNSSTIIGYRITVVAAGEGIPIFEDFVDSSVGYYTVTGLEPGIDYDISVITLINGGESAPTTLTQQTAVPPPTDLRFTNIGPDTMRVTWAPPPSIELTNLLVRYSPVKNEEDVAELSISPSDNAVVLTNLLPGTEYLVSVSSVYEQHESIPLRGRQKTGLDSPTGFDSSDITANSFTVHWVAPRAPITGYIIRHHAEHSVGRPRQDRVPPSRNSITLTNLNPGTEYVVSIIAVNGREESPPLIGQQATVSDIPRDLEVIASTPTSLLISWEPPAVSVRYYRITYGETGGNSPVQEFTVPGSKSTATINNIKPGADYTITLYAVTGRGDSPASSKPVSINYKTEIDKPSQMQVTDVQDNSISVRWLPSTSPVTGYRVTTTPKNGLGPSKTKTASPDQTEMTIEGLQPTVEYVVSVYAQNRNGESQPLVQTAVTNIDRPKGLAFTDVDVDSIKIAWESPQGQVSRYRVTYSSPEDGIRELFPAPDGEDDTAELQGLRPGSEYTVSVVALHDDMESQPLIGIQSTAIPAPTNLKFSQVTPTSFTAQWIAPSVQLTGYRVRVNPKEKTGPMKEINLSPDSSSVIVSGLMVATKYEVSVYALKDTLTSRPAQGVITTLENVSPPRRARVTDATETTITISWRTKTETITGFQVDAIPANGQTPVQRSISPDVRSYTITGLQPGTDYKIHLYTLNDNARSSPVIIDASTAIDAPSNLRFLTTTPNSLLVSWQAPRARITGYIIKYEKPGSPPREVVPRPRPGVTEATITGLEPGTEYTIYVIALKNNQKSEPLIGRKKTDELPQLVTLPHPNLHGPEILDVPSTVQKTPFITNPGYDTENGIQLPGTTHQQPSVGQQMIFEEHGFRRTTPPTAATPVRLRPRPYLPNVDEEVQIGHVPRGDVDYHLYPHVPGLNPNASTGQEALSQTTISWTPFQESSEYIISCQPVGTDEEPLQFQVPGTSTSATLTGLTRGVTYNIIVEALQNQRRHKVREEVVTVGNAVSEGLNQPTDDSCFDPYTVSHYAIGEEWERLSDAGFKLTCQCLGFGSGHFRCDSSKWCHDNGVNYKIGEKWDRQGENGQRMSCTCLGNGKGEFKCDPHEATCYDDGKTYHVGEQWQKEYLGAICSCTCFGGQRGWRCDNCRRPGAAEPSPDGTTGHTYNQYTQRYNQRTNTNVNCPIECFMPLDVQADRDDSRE
T3 sequence (P02751 32-2477): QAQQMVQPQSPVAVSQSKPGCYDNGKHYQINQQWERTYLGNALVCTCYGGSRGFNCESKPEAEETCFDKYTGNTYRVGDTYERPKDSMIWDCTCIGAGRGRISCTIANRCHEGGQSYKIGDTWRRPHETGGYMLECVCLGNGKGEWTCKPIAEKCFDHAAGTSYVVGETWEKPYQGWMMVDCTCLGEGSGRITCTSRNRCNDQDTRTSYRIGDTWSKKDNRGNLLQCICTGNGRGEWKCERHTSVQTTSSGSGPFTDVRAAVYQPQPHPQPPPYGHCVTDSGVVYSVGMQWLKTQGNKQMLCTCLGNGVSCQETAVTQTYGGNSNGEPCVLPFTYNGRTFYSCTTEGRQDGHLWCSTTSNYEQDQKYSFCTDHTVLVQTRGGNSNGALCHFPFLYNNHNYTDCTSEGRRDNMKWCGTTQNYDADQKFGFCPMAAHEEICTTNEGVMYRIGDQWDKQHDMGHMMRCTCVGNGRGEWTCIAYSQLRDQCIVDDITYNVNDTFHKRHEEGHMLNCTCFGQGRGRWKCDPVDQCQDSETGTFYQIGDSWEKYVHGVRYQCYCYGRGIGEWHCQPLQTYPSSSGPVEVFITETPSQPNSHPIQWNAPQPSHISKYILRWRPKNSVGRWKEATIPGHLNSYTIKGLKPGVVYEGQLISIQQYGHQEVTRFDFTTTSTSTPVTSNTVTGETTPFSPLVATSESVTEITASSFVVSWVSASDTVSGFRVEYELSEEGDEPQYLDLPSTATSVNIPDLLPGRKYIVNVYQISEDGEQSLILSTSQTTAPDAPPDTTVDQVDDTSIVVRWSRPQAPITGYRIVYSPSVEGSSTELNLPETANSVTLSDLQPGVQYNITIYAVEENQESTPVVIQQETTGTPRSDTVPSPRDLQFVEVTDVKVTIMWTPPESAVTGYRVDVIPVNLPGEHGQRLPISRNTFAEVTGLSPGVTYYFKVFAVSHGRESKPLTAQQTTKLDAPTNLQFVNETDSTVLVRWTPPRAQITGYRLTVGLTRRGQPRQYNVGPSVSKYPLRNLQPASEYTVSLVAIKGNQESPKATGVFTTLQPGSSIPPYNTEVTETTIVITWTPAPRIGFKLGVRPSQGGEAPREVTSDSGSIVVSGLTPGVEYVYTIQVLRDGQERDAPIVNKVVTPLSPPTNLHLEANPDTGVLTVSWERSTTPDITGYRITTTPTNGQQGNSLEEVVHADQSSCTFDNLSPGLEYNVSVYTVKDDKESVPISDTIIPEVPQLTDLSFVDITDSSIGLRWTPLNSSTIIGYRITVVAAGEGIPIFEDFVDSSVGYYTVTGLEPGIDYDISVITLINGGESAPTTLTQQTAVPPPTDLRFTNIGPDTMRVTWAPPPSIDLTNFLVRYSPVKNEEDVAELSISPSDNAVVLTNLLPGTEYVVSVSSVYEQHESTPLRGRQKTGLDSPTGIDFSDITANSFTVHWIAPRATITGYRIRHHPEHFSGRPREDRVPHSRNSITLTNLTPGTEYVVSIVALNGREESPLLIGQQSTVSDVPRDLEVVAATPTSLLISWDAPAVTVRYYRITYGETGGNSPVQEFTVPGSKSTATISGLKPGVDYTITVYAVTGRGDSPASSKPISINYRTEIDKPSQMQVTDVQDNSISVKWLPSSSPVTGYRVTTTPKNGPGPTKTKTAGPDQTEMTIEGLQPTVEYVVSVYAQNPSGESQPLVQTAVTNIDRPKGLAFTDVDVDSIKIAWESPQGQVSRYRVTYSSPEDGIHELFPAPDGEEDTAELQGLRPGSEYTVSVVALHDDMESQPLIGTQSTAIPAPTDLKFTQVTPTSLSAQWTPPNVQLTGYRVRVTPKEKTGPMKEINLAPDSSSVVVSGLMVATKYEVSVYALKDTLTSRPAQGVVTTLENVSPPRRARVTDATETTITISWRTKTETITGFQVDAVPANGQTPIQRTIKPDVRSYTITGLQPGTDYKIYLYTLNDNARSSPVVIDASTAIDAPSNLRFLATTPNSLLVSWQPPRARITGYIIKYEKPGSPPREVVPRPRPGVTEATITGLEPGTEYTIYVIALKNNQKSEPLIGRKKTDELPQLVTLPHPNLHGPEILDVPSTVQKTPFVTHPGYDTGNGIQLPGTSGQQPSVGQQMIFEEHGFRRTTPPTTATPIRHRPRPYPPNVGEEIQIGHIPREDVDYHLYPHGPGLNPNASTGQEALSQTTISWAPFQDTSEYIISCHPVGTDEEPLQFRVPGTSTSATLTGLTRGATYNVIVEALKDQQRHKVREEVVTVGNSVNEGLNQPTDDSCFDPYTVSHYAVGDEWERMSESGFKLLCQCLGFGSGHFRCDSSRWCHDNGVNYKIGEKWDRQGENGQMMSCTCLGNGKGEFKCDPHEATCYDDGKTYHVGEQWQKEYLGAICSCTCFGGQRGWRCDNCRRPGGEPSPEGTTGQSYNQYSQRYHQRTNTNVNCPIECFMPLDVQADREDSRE
T2 sequence (P02751 1271-1359): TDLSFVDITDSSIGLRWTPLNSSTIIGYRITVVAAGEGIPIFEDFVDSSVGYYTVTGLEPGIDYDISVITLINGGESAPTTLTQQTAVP

B1: NJB2 (VHH)
VHH: QVQLVETGGGLVQAGGSLRLSCAASGSTFSHNAGGWYRQAPEKQRELVAGISSDGNINYADSVKDRFTISRDNASNTMYLQMNNLKPEDTAVYVCNIRGSYGNTYYSRWGQGTQVTVSS
modifications: site-specifically labelled via sortagging (LPETG tag) with biotin, Texas Red or 64Cu in the staining and imaging assays
notes: After sortagging the C-terminus differs (label in place of the residues after LPET); also called VHH NJB2; VHH-NJB2
In the case of B1, the binding result in assay [1] and in assay [3] was “binds” each time. Further, the Kd in assay [2] is roughly 4 nM.
